Series [1] deals with MDA-MB231 tumor xenografts. Particulars: for Competition of kidney uptake by coadministered unlabeled conjugate: 100-fold excess unlabeled conjugate. Here is the method:
Animal Husbandry and in vivo tumor implantation. Female athymic nu/nu mice were purchased from Harlan laboratories. The animals were housed in a sterile environment and kept in 12 h light/day cycle. The animals have free access to rodent chow and water. 2×10^6 MDA-MB23 cells were suspended in 100 microliters of sterile phosphate buffer saline and injected subcutaneously into the right flank of each mouse.
In vivo imaging and biodistribution. All the animal experiments were conducted in accordance to the guidelines approved by Purdue Animal Care and Use Committee. The experiment was initiated once the tumor volume reached approximately 300-400 mm^3. Tumor volume was measured as 0.5×L×W2, where L is the longest axis and W is an axis perpendicular to L in mm. In the lateral tail vein, the mice were injected with 150 μCi of the radioactive conjugates (either in the presence or absence of excess of the unlabeled conjugates.) in 100 μl of sterile phosphate buffer saline For imaging mice were euthanized 2 h post injection by CO2 asphyxiation and imaged using Kodak Imaging Station. After imaging necroscopy was performed on animals to remove selected tissue and weighted. Tissue bound radioactivity was quantified by using gamma counter (Packard Gamma Counter) For time course study, the animals were sacrificed at following time points post injections: 2 h, 4 h, 6 h, and 8 h. Tissue of interest was weighed and the tissue bound radioactivity was counted by using gamma counter. Count per minute values of tissues bound radioactivity was decay corrected and converted into percentage injected dose per gram if the tissue (% ID/g). The data was analyzed by using GraphPad Prism.
In vivo whole body imaging and biodistribution of JL-L1A, JL-L2A and JL-L3A. In order to investigate the uptake of radioactive conjugates in LHRH-R positive tumors all the three conjugates (150 μCi) were injected the lateral vein of mice with MDA-MB231 tumors. For competition studies the mice were additional injected with 100-fold excess of the unlabeled conjugates. MDA-MB231 tumor bearing mice were injected with the ^99mTc chelated conjugates in their lateral tail vein (mice labeled as treated). Another group of mice were injected with the ^99mTc labeled molecules but in the presence of excess of the unlabeled conjugates. Images were taken 2 h post injections. FIG. 17A represents whole body imaging of JL-L1A whereas FIG. 17B and FIG. 17C represents the whole body imaging of JL-L2A and JL-L3A respectively. (n=5).
The further investigate the retention of 99mTc chelated JL-L3A, the radioactive conjugate was injected in mice with MDA-MB231 xenografts. After euthanizing the. Animals at 2 h, 4 h and 8 h post injection they were imaged and radioactivity associated with organs of interest was counted. […] MDA-MB231 tumor bearing mice were injected with the ^99mTc chelated conjugates in their lateral tail vein (mice labeled as treated). Another group of mice were injected with the ^99mTc labeled molecules but in the presence of excess of the unlabeled conjugates. Radioactivity of all the major organs and blood were determined 2 h post injection and the percentage injected dose per gram of the tissue was plotted. FIG. 18A represents biodistribution of JL-L1A whereas FIG. 18B and FIG. 18C represents the biodistribution of JL-L2A and JL-L3A respectively (n=5). Error bar indicates standard deviation.

The subject of a further series is MDA-MB231 cells. It counts as cell-based, human. The note with it: free drug, 2 h exposure + 66 h, 3H-thymidine incorporation; read-out: IC50. Here is the method:
(§1) In vitro determination of cell viability. MDA-MB231 and SKVO3 cells were seeded at a concentration of 10,000 cells per well on a 24 well plate and allowed to grow in monolayers. […] After incubating for 2 h at 37° C., cells were rinsed three times with fresh medium and then incubated in 0.5 ml fresh medium for an additional 66 h at 37° C. Sent medium was then replaced with 0.5 ml of medium containing ^3H-thymidine and incubated for additional 4 h. Cells were then again washed three times with the fresh medium and then incubated with 0.5 ml of 2.5% trichloroacetic acid for 10 min at room temperature. After removing the trichloroacetic acid, cells were dissolved in 0.25 N NaOH. Cell viability was determined by counting the incorporation of ^3H-thymidine in cells using scintillation counter (Packard, Packard Instrument Company). The IC50 value was derived from a plot of the percent of ^3H-thymidine incorporation versus log concentration using Graph Pad Prism 4.
(§2) In vitro cytotoxicity of tubulysin B hydrazide conjugate: To inspect the killing efficiency of the therapeutic conjugate, MDA-MB231 and SKOV3 cancer cells were incubated with various concentrations of JL-L3-TubBH either in the presence or absence of excess JL-L3, for 2 h at 37° C. After washing off the excess conjugate, the cells were incubated in fresh media for an additional 66 h followed by incubation with media containing ^3H-thymidine to assess cell viability. Radioactivity was counted using PerkinElmer's scintillation counter. The same procedure was repeated after exposing the cells to the free tubulysin B hydrazide.
(In general: Dividing cells build labelled thymidine or BrdU into new DNA.)

For a further series, the system named is SKOV3 cells. It is filed as cell-based, human. The note with it: free drug, 2 h exposure + 66 h, 3H-thymidine incorporation. As for the experimental part: as §1, §2
The target in the next series is T1, LHRH-R (Homo sapiens, UniProt P30968).
T1 construct: LHRH-R positive breast cancer cell, MDA-MB231; endogenous in cells; host or cells: MDA-MB231 breast cancer cells
T1 sequence (P30968 1-328): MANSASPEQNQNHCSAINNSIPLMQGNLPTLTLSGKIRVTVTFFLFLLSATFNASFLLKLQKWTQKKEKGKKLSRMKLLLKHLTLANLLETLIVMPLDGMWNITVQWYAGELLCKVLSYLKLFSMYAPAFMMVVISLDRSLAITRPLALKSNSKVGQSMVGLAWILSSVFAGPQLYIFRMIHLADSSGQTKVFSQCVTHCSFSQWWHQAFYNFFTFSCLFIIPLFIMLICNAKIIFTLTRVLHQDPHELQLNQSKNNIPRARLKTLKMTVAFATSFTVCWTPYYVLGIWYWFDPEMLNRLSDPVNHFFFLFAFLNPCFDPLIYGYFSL
In words: In vitro binding assay of 99mTc radioactive conjugate by cell bound radioactivity. Particulars: MDA-MB231 cells. As for the experimental part: In vitro binding assay. MDA-MB231 cells were seeded in 24 well plate and allowed to form a monolayer. […] The cells were incubated for 2 h at 37° C. and then rinsed three times with medium. After rinsing cells were dissolved by adding 0.5 ml of 0.25N NaOH to each well for 20 minutes. The cell bound radioactivity measured by using Packcard gamma counter and the Kd was calculated using the graphpad prism by plotting the cell bound radioactivity against the concentration of radiotracer. […] Solid circle indicates ^99mTc chelated conjugates whereas open circle indicates competition.
To determine the binding affinity, the MDA-MB231 cells were incubated with various concentrations of the radioactive conjugate JL-L1A either in the presence or absence of the unlabeled conjugate for 2 h at 37° C.

Structures are written as SMILES.

What is called IC50 is the concentration needed to halve the response being measured. Broadly, the Kd is the concentration at which binding is half-saturated.

`Cc1c(-c2cccc(CCC(=O)NCCOCCOCCOCCOCCOCCOCCC(=O)NC[C@H](N)C(=O)N[C@@H](CC(=O)O)C(=O)N[C@@H](CS)C(=O)O)c2)c(=O)n(C[C@H](N)c2ccccc2)c(=O)n1Cc1c(F)cccc1F` [JL-L2A]: the “Competition of kidney uptake by coadministered unlabeled conjugate” value in series [1] (2 h post injection) was “not competed”. In addition, in series [1] (150 μCi, 2 h post injection), the Kidney uptake entry was “highest uptake in the kidney” and the Spleen uptake result was “significant non-specific uptake in the spleen”.
Take `CCCC(=O)OCN(C(=O)[C@@H](NC(=O)[C@H]1CCCCN1C)C(C)CC)[C@H](C[C@@H](OC(C)=O)c1nc(C(=O)N[C@@H](Cc2ccc(O)cc2)C[C@H](C)C(=O)NN)cs1)C(C)C` (stereo partly shown) [tubulysin B hydrazide, Tubulysin B hydrazide, reference compound]: the IC50 is 0.067 nM in the series with MDA-MB231 cells and 0.005 nM with SKOV3 cells.
For the compound `Cc1c(-c2cccc(CCC(=O)NCCCCCCCC(=O)N[C@H](CCC(=O)NC[C@H](O)[C@@H](O)[C@H](O)[C@H](O)CO)C(=O)N[C@H](CCC(=O)O)C(=O)N[C@H](CCC(=O)NC[C@H](O)[C@@H](O)[C@H](O)[C@H](O)CO)C(=O)NC[C@H](N)C(=O)N[C@@H](CC(=O)O)C(=O)N[C@@H](CS)C(=O)O)c2)c(=O)n(C[C@H](N)c2ccccc2)c(=O)n1Cc1c(F)cccc1F` [JL-L3A], on LHRH-R (99mTc chelated conjugate, 2 h at 37° C.), the Kd was 14.4 nM. Moreover, at LHRH-R (presence of excess of competing ligand), the “Cell-bound radioactivity under competition” value is listed as “diminished”.
For the compound `Cc1c(-c2cccc(CCC(=O)NCCCCCCCC(=O)N[C@H](CCC(=O)NC[C@H](O)[C@@H](O)[C@H](O)[C@H](O)CO)C(=O)N[C@H](CCC(=O)O)C(=O)N[C@H](CCC(=O)NC[C@H](O)[C@@H](O)[C@H](O)[C@H](O)CO)C(=O)NC[C@H](N)C(=O)N[C@@H](CC(=O)O)C(=O)N[C@@H](CS)C(=O)O)c2)c(=O)n(C[C@H](N)c2ccccc2)c(=O)n1Cc1c(F)cccc1F` (99mTc complex, metal not drawn) [JL-L3A], the “Kidney and liver uptake” value in series [1] (99mTc conjugate) is listed as “non-specific”. Besides, in series [1] (2 h post injection), the “Competition of kidney uptake by coadministered unlabeled conjugate” value is recorded as “not competed” and the “Biodistribution compared among the three conjugates” value was “most favorable biodistributions”. Moreover, in series [1] (150 μCi, 2 h post injection), the Kidney uptake result is reported as “highest uptake in the kidney” and the Spleen uptake result is given as “only minimal activity”. The “Tissue distribution at 4 h and 8 h post injection” value in series [1] (compared with 2 h post injection) is given as “same pattern as 2 h post injection”. Besides, in series [1] (time-dependent imaging, 2 h, 4 h, 8 h), the “Tumor radioactivity intensity at 8 h relative to 2 h post-injection” value is on record as “less than half of the intensity at 2 h post-injection”.
On to `Cc1c(-c2cccc(CCC(=O)N[C@@H](CCC(=O)N[C@H](CCC(=O)NC[C@H](N)C(=O)N[C@@H](CC(=O)O)C(=O)N[C@@H](CS)C(=O)O)C(=O)O)C(=O)O)c2)c(=O)n(C[C@H](N)c2ccccc2)c(=O)n1Cc1c(F)cccc1F` [JL-L1A], for which the Tumor uptake result in series [1] (150 μCi 99mTc conjugate i.v., 2 h post injection, with/without 100-fold excess unlabeled conjugate) is “highest uptake in the tumor”. In addition, the “Uptake in other organs” value in series [1] (150 μCi, 2 h post injection) is “uptake in other vital organs”.

For the origin of these results see US11883498B2, “Luteinizing hormone-releasing hormone receptor (LHRH-R) conjugates and uses thereof” (priority 2016, dated 2024).
